Measured values taken from patent publication US20040127421A1 (KIMBERLY CLARK WORLDWIDE, published 2004).

Assays:
Active MMP-9 enzyme [1] = target: T1, Active MMP-9 enzyme (UniProt P14780 107-707, limits assumed); assay: enzyme inhibition, fluoresceinated collagen substrate, Dixon plot
T1 construct: mature; also called matrix metalloproteinase-9; mature MMP-9
Description: Two enzymatic assays were performed. The first assay measured the enzymatic hydrolysis of fluoresceinated collagen by MMP-9 as a function of time. […] The protein mixture was added to the collagen substrate, and was quickly mixed. Fluorescence emission intensity at 520 nm was measured as a function of time (excitation wavelength 495 nm) in a Shimadzu RF5301 fluorometer (Lakowicz, 1983). The fluorescein release assay was used to determine the inhibitory constant (Ki) of the peptide inhibitor ([I]) according to Segel (1993) via the use of Dixon plots (1/v vs. [I]), such that: […]

Active MMP-9 enzyme [2] = target: T1, Active MMP-9 enzyme; assay: enzyme inhibition, FRET peptide substrate
Description: (§1) The second assay utilized the technique of fluorescence resonance energy transfer (FRET). The substrate peptide (Calbiochem) of seven amino acids was coupled to a carboxyl terminal dinitrophenyl acceptor, and an amino terminal 2-aminobenzo-anthraniloyl (Abz) moiety donor. […] The protein mixture was added to the fluorescent peptide substrate, and was quickly mixed. Fluorescence intensity as a function of time was measured with a Dynex MFX fluorescence microtiter plate reader. Fluorescence intensity was related back to moles of peptide cleaved by producing a standard curve with an Abz containing non-FRET peptide.
(§2) These assays utilized FRET peptides that incorporated specific MMP cleavage sites into their sequence.

MMP-2 = target: T2, MMP-2 (Homo sapiens (Human), UniProt P08253 110-660); assay: isothermal titration calorimetry, 1 mM 19-mer into 20 µM MMP-2, 20 mM cacodylate pH 6.8, 10 mM NaCl, 25° C.
T2 construct: an active enzyme without signal and propeptide is likely; also called matrix metalloproteinase-2
T2 sequence: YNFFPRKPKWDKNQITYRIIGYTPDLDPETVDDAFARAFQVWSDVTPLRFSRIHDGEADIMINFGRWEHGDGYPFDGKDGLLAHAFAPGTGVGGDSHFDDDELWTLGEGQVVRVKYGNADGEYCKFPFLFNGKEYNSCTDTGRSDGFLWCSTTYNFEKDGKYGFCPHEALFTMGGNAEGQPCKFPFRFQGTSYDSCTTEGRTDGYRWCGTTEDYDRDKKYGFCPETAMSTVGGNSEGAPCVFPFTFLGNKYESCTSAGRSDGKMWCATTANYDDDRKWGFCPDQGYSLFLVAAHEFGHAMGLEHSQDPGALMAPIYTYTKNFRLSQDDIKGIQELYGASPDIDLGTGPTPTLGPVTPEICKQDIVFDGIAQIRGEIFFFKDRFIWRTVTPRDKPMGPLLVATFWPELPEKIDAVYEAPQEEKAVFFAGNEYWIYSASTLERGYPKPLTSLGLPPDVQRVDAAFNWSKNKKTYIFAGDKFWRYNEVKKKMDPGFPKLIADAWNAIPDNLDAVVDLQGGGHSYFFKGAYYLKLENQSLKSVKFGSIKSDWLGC

Active MMP-9 enzyme [3] = target: T1, Active MMP-9 enzyme; assay: SPR (BIACore-X), calculated from ka/kd
Description: MMP-9 at a concentration of 75 ng/μL was coupled to the activated surface at a flow rate of 10 μL per minute for ten minutes. The final surface was inactivated by flowing 1 M ethanolamine-HCl at a rate of 10 μL per minute for five minutes over the sensor surface. […] The association and dissociation phases of the binding isotherms were smoothed by an automated FFT routine prior to modeling rate constants. Binding isotherms were evaluated by simultaneously fitting the forward (kₐ) and reverse (kd) rate constants to:
There was an observed bulk transport effect of approximately 100 response units at the start of the dissociation phase that was not modeled.

Active MMP-9 enzyme [4] = target: T1, Active MMP-9 enzyme; assay: isothermal titration calorimetry, 1 mM peptide into 20 µM MMP-9, 20 mM cacodylate pH 6.8, 20 mM NaCl
Description: Isothermal titration calorimetry (ITC) was performed with a VP-ITC instrument from MicroCal, Inc. Titrations were carried out by injecting 5 μL of an inhibitor peptide solution (at concentration ranges from 0.5 mM to 2.0 mM) into the 1.4 mL stirred reaction cell. MMP-9 ranged in concentration from 50 to 80 μM in the cell. Both the inhibitor and the enzyme were in 20 mM sodium cacodylate (pH 5.5-7.0), 40 mM NaCl, or 20 mM Tris-HCl (pH 7.0-7.5), 40 mM NaCl. Titrations were conducted between 20° C. and 40° C. Typical experimental conditions for the titrations were a 10 second injection period followed by a 240 second delay between injections for a total of 40 injections. Blank titrations of inhibitor peptide into buffer were performed in order to correct for heats of dilution and mixing.
The peptide was dissolved in 20 mM cacodylate (pH 6.8), 20 mM NaCl at a final concentration of 1 mM. MMP-9 was dialyzed into the same buffer at a final concentration of 20 μM. A series of standard injections were performed as described above.

MMP-7 = target: T3, MMP-7 (UniProt P09237 95-267, limits assumed); assay: enzyme inhibition, FRET peptide substrate
T3 construct: also called matrix metalloproteinase-7
T3 sequence (looked up): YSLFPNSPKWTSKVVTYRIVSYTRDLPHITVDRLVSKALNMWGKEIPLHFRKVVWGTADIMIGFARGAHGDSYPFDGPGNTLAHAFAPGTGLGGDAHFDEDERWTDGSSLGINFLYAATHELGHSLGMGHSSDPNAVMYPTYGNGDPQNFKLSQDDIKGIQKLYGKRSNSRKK
Description: as §1, §2

MMP-3 = target: T4, MMP-3 (UniProt P08254 100-477, limits assumed); assay: enzyme inhibition, FRET peptide substrate
T4 construct: also called matrix metalloproteinase-3
T4 sequence (P08254 100-477 limits assumed): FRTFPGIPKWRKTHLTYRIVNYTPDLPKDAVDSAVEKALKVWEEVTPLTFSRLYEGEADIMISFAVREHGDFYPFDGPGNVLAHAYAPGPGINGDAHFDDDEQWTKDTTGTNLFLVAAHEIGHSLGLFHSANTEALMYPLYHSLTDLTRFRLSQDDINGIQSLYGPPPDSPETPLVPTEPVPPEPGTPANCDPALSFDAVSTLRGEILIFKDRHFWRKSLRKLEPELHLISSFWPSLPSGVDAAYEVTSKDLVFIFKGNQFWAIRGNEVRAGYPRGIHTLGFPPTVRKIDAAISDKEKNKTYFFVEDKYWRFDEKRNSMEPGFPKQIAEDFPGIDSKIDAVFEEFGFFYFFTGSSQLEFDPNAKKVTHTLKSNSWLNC
Description: as §1, §2

T1 sequence (P14780 107-707 limits assumed): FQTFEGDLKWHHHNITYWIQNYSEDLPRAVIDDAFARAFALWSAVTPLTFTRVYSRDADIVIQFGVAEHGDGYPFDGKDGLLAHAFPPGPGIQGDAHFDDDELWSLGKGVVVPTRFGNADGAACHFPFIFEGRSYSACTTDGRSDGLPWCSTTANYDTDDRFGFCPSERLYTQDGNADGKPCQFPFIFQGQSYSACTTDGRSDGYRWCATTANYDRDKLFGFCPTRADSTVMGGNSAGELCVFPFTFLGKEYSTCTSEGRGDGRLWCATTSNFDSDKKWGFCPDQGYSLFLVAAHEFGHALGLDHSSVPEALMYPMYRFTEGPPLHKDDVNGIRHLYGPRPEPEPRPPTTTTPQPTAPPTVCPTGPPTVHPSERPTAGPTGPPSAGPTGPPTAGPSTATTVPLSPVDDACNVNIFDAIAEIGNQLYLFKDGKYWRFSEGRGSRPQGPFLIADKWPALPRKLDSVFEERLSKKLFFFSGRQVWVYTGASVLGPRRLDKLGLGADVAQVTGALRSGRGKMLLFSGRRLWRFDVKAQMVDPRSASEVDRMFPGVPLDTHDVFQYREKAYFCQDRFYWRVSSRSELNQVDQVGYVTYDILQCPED

Binder PRCGNPDVA [9-mer (SEQ ID NO:12) PRCGNPDVA] has a Ki (Active MMP-9 enzyme [1]) of 186 µM and a Ki (Active MMP-9 enzyme [2]) of 233 µM.

In the case of NYNFFPRKPK [10-mer (SEQ ID NO:13) NYNFFPRKPK], the Ki (Active MMP-9 enzyme [1]) is reported as 221 µM and the Ki (Active MMP-9 enzyme [2]) is reported as 328 µM.

B1: 19-mer (SEQ ID NO:11) PRCGNPDVANYNFFPRKPK (peptide)
peptide: H-PRCGNPDVANYNFFPRKPK-OH
notes: Synthesized by Sigma-Genosys, >95% pure by RP-HPLC; Free termini; the acetylated/amidated Ac-19-mer was used only in migration assays; also called 19mer peptide
B1 gave a Ka (MMP-2) of 2.4e+06 M⁻¹, a Stoichiometry (MMP-2) of 0.99 and a ΔH (MMP-2) of -15.4 kcal/mol. The ΔS (MMP-2) was -21.1 cal mol^-1 K^-1, the Ka (Active MMP-9 enzyme [3]) was 5.3e+06 M⁻¹ and the Ki (Active MMP-9 enzyme [1]) was 30.3 µM. The Ka (Active MMP-9 enzyme [4]) was 1.65e+06 M⁻¹, the Stoichiometry (Active MMP-9 enzyme [4]) was 0.975 and the ΔH (Active MMP-9 enzyme [4]) was -26.1 kcal/mol. For the same binder, the ΔS (Active MMP-9 enzyme [4]) was -11.6 cal mol^-1 K^-1, the Ki (MMP-7) was 22.8 µM and the Ki (MMP-3) was 6.4 µM. For the same binder, the Ki (Active MMP-9 enzyme [2]) was 45.2 µM.
